These results are taken from ChEMBL document CHEMBL1908105, “UDP-glucuronosyltransferases and clinical drug-drug interactions” (Pharmacol Ther, 2005).

A value given as a limit tells only on which side of the number the result lay.

Series [1] is described as follows: Inhibition of AZT glucuronidation by human UGT enzymes from liver microsomes. More on the design: species or system Microsome. A general note: Liver microsomes are a subcellular fraction often used to study metabolism.
The nature of series [2]: Inhibition of 4-methylumbelliferone glucuronidation by human UGT enzymes from liver microsomes. More on the design: species or system Microsome.
Substrate in series [3]: CN1CC[C@]23c4c5ccc(O[C@@H]6O[C@H](C(=O)O)[C@@H](O)[C@H](O)[C@H]6O)c4O[C@H]2[C@@H](O)C=C[C@H]3[C@H]1C5
Description: (§1) Drug glucuronidation reaction catalyzed by human recombinant UGT1A10.

Substrate in series [4]: O=C(c1ccc(OCCN2CCCCC2)cc1)c1c(-c2ccc(O[C@H]3O[C@H](C(=O)O)[C@@H](O)[C@H](O)[C@H]3O)cc2)sc2cc(O)ccc12
Described as §1.

Substrate in series [5]: CCc1c2c(nc3ccc(O)cc13)-c1cc3c(c(=O)n1C2)COC(=O)[C@]3(O)CC
Description: (§2) Drug glucuronidation reaction catalyzed by human recombinant UGT1A6.

Substrate in series [6]: CN1CC[C@]23c4c5ccc(O[C@@H]6O[C@H](C(=O)O)[C@@H](O)[C@H](O)[C@H]6O)c4O[C@H]2[C@@H](O)C=C[C@H]3[C@H]1C5
The series is described as §2.

Substrate in series [7]: CCc1c2c(nc3ccc(O)cc13)-c1cc3c(c(=O)n1C2)COC(=O)[C@]3(O)CC
Description: (§3) Drug glucuronidation reaction catalyzed by human recombinant UGT1A7.

Substrate in series [8]: COc1c(C)c2c(c(O)c1C/C=C(\C)CCC(=O)O)C(=O)OC2
The description is as §3.

Substrate in series [9]: O=C(c1ccc(OCCN2CCCCC2)cc1)c1c(-c2ccc(O)cc2)sc2cc(O[C@@H]3O[C@H](C(=O)O)[C@@H](O)[C@H](O)[C@H]3O)ccc12
Description: (§4) Drug glucuronidation reaction catalyzed by human recombinant UGT1A8.

Substrate in series [10]: COc1c(C)c2c(c(O)c1C/C=C(\C)CCC(=O)O)C(=O)OC2
The description is as §4.

Substrate in series [11]: CN1CC[C@]23c4c5ccc(O[C@@H]6O[C@H](C(=O)O)[C@@H](O)[C@H](O)[C@H]6O)c4O[C@H]2[C@@H](O)C=C[C@H]3[C@H]1C5
The series is described as §4.

Substrate in series [12]: O=C1CC[C@@]2(O)[C@H]3Cc4ccc(O)c5c4[C@@]2(CCN3CC2CC2)[C@H]1O5
The description is as §4.

Substrate in series [13]: O=C(c1ccc(OCCN2CCCCC2)cc1)c1c(-c2ccc(O[C@H]3O[C@H](C(=O)O)[C@@H](O)[C@H](O)[C@H]3O)cc2)sc2cc(O)ccc12
The series is described as §4.

Substrate in series [14]: CC(C)c1cccc(C(C)C)c1O
The series can be described thus: not read.

Substrate in series [15]: O=C(c1ccc(OCCN2CCCCC2)cc1)c1c(-c2ccc(O)cc2)sc2cc(O[C@@H]3O[C@H](C(=O)O)[C@@H](O)[C@H](O)[C@H]3O)ccc12
Description: (§5) Drug glucuronidation reaction catalyzed by human recombinant UGT1A9.

Substrate in series [16]: CCC[S+]([O-])CCCN(CC)CC(O)COc1ccc(C#N)cc1
The series is described as §5.

Substrate in series [17]: CCc1c2c(nc3ccc(O)cc13)-c1cc3c(c(=O)n1C2)COC(=O)[C@]3(O)CC
Described as §5.

Substrate in series [18]: CN1CC[C@H](c2c(O)cc(O)c3c(=O)cc(-c4ccccc4Cl)oc23)[C@H](O)C1
Described as §5.

Substrate in series [19]: Cc1ccc(C(=O)c2cc(O)c(O)c([N+](=O)[O-])c2)cc1
The description is as §5.

Substrate in series [20]: CCN(CC)C(=O)/C(C#N)=C/c1cc(O)c(O)c([N+](=O)[O-])c1
The series is described as §5.

Substrate in series [21]: CC(=O)Nc1ccc(O)cc1
The series is described as §5.

Substrate in series [22]: COc1c(C)c2c(c(O)c1C/C=C(\C)CCC(=O)O)C(=O)OC2
The description is as §5.

Substrate in series [23]: CN1CC[C@]23c4c5ccc(O[C@@H]6O[C@H](C(=O)O)[C@@H](O)[C@H](O)[C@H]6O)c4O[C@H]2[C@@H](O)C=C[C@H]3[C@H]1C5
The description is as §5.

Substrate in series [24]: O=C(c1ccc(OCCN2CCCCC2)cc1)c1c(-c2ccc(O[C@H]3O[C@H](C(=O)O)[C@@H](O)[C@H](O)[C@H]3O)cc2)sc2cc(O)ccc12
Described as §5.

Substrate in series [25]: O=C1Nc2ccc(Cl)cc2C(c2ccccc2)=N[C@@H]1O
The series can be described thus: not read.

Consider `CN1C(=O)C(O)N=C(c2ccccc2)c2cc(Cl)ccc21` (stereo unspecified) [TEMAZEPAM], for which the Ki stood at 580 µM in series [1] and 217 µM in [2].

In the case of `CC(C(=O)O)c1cccc(Oc2ccccc2)c1` (stereo unspecified) [FENOPROFEN], the affinity in series [2] corresponds to a Ki of 220 µM.

B1: UDP-glucuronosyltransferase 1A10 (Homo sapiens) (protein)
chain: MARAGWTSPVPLCVCLLLTCGFAEAGKLLVVPMDGSHWFTMQSVVEKLILRGHEVVVVMPEVSWQLERSLNCTVKTYSTSYTLEDQNREFMVFAHAQWKAQAQSIFSLLMSSSSGFLDLFFSHCRSLFNDRKLVEYLKESSFDAVFLDPFDTCGLIVAKYFSLPSVVFTRGIFCHHLEEGAQCPAPLSYVPNDLLGFSDAMTFKERVWNHIVHLEDHLFCQYLFRNALEIASEILQTPVTAYDLYSHTSIWLLRTDFVLDYPKPVMPNMIFIGGINCHQGKPLPMEFEAYINASGEHGIVVFSLGSMVSEIPEKKAMAIADALGKIPQTVLWRYTGTRPSNLANNTILVKWLPQNDLLGHPMTRAFITHAGSHGVYESICNGVPMVMMPLFGDQMDNAKRMETKGAGVTLNVLEMTSEDLENALKAVINDKSYKENIMRLSSLHKDRPVEPLDLAVFWVEFVMRHKGAPHLRPAAHDLTWYQYHSLDVIGFLLAVVLTVAFITFKCCAYGYRKCLGKKGRVKKAHKSKTH
For the molecule B1, the Michaelis-Menten constant (Km) in series [3] is 12600 µM; in series [4], 5 µM. Besides, the figures for the Vmax in [3] and in series [4] were 0.000629 µmol/min/mg and 0.00055 µmol/min/mg, respectively.

B2: UDP-glucuronosyltransferase 1A6 (Homo sapiens) (protein)
chain: MACLLRSFQRISAGVFFLALWGMVVGDKLLVVPQDGSHWLSMKDIVEVLSDRGHEIVVVVPEVNLLLKESKYYTRKIYPVPYDQEELKNRYQSFGNNHFAERSFLTAPQTEYRNNMIVIGLYFINCQSLLQDRDTLNFFKESKFDALFTDPALPCGVILAEYLGLPSVYLFRGFPCSLEHTFSRSPDPVSYIPRCYTKFSDHMTFSQRVANFLVNLLEPYLFYCLFSKYEELASAVLKRDVDIITLYQKVSVWLLRYDFVLEYPRPVMPNMVFIGGINCKKRKDLSQEFEAYINASGEHGIVVFSLGSMVSEIPEKKAMAIADALGKIPQTVLWRYTGTRPSNLANNTILVKWLPQNDLLGHPMTRAFITHAGSHGVYESICNGVPMVMMPLFGDQMDNAKRMETKGAGVTLNVLEMTSEDLENALKAVINDKSYKENIMRLSSLHKDRPVEPLDLAVFWVEFVMRHKGAPHLRPAAHDLTWYQYHSLDVIGFLLAVVLTVAFITFKCCAYGYRKCLGKKGRVKKAHKSKTH
As to B2, the Michaelis-Menten constant (Km) in [5] amounted to 97 µM; in series [6], 18000 µM. The Vmax in series [5] was found to be 2.8e-05 µmol/min/mg; in [6] it was 2.1e-05 µmol/min/mg.

B3: UDP-glucuronosyltransferase 1A7 (Homo sapiens) (protein)
chain: MARAGWTGLLPLYVCLLLTCGFAKAGKLLVVPMDGSHWFTMQSVVEKLILRGHEVVVVMPEVSWQLGRSLNCTVKTYSTSYTLEDQDREFMVFADARWTAPLRSAFSLLTSSSNGIFDLFFSNCRSLFNDRKLVEYLKESCFDAVFLDPFDACGLIVAKYFSLPSVVFARGIFCHYLEEGAQCPAPLSYVPRLLLGFSDAMTFKERVWNHIMHLEEHLFCPYFFKNVLEIASEILQTPVTAYDLYSHTSIWLLRTDFVLEYPKPVMPNMIFIGGINCHQGKPVPMEFEAYINASGEHGIVVFSLGSMVSEIPEKKAMAIADALGKIPQTVLWRYTGTRPSNLANNTILVKWLPQNDLLGHPMTRAFITHAGSHGVYESICNGVPMVMMPLFGDQMDNAKRMETKGAGVTLNVLEMTSEDLENALKAVINDKSYKENIMRLSSLHKDRPVEPLDLAVFWVEFVMRHKGAPHLRPAAHDLTWYQYHSLDVIGFLLAVVLTVAFITFKCCAYGYRKCLGKKGRVKKAHKSKTH
As for B3, in series [7], the Km was determined as 5 µM and the Vmax is less than 1e-06 µmol/min/mg. Moreover, in series [8], the Km was 30 µM and the Vmax turned out to be 0.00037 µmol/min/mg.

B4: UDP-glucuronosyltransferase 1A8 (Homo sapiens) (protein)
chain: MARTGWTSPIPLCVSLLLTCGFAEAGKLLVVPMDGSHWFTMQSVVEKLILRGHEVVVVMPEVSWQLGKSLNCTVKTYSTSYTLEDLDREFMDFADAQWKAQVRSLFSLFLSSSNGFFNLFFSHCRSLFNDRKLVEYLKESSFDAVFLDPFDACGLIVAKYFSLPSVVFARGIACHYLEEGAQCPAPLSYVPRILLGFSDAMTFKERVRNHIMHLEEHLFCQYFSKNALEIASEILQTPVTAYDLYSHTSIWLLRTDFVLDYPKPVMPNMIFIGGINCHQGKPLPMEFEAYINASGEHGIVVFSLGSMVSEIPEKKAMAIADALGKIPQTVLWRYTGTRPSNLANNTILVKWLPQNDLLGHPMTRAFITHAGSHGVYESICNGVPMVMMPLFGDQMDNAKRMETKGAGVTLNVLEMTSEDLENALKAVINDKSYKENIMRLSSLHKDRPVEPLDLAVFWVEFVMRHKGAPHLRPAAHDLTWYQYHSLDVIGFLLAVVLTVAFITFKCCAYGYRKCLGKKGRVKKAHKSKTH
Regarding B4, the Km in [9] is 8 µM; in [10], 298 µM; in series [11], 26000 µM; in series [12], 1550 µM; in series [13] it was 59 µM; in “not read [14]”, 412 µM. The Vmax was determined as 0.00061 µmol/min/mg in series [9]; 0.0326 µmol/min/mg in series [10]; 1.3e-05 µmol/min/mg in series [11]; 0.000495 µmol/min/mg in [12]; 0.002 µmol/min/mg in series [13]; 0.00382 µmol/min/mg in “not read [14]”.

B5: UDP-glucuronosyltransferase 1A9 (Homo sapiens) (protein)
chain: MACTGWTSPLPLCVCLLLTCGFAEAGKLLVVPMDGSHWFTMRSVVEKLILRGHEVVVVMPEVSWQLGRSLNCTVKTYSTSYTLEDLDREFKAFAHAQWKAQVRSIYSLLMGSYNDIFDLFFSNCRSLFKDKKLVEYLKESSFDAVFLDPFDNCGLIVAKYFSLPSVVFARGILCHYLEEGAQCPAPLSYVPRILLGFSDAMTFKERVRNHIMHLEEHLLCHRFFKNALEIASEILQTPVTEYDLYSHTSIWLLRTDFVLDYPKPVMPNMIFIGGINCHQGKPLPMEFEAYINASGEHGIVVFSLGSMVSEIPEKKAMAIADALGKIPQTVLWRYTGTRPSNLANNTILVKWLPQNDLLGHPMTRAFITHAGSHGVYESICNGVPMVMMPLFGDQMDNAKRMETKGAGVTLNVLEMTSEDLENALKAVINDKSYKENIMRLSSLHKDRPVEPLDLAVFWVEFVMRHKGAPHLRPAAHDLTWYQYHSLDVIGFLLAVVLTVAFITFKCCAYGYRKCLGKKGRVKKAHKSKTH
Consider B5, for which the Km in [15] was 25 µM; in [16], 1060 µM; in [17] it was 13 µM; in series [18] it was 37 µM; in series [19] it was 66 µM; in series [20], 10 µM. Further, the Michaelis-Menten constant (Km) in series [21] worked out at 20900 µM; in [22] it was 291 µM; in series [23] it was 37400 µM; in series [24], 13 µM; in the series “not read [14]”, 37 µM; in “not read [25]”, 12 µM. In addition, the Vmax in series [15] was found to be 0.00032 µmol/min/mg; in series [16], 9.2e-05 µmol/min/mg; in [17], 2e-05 µmol/min/mg; in series [18], 5.6e-05 µmol/min/mg; in series [19] it was 0.00048 µmol/min/mg; in series [20] it was 0.0018 µmol/min/mg. For the same molecule, the Vmax in [21] came to 0.0063 µmol/min/mg; in [22] it was 0.00838 µmol/min/mg; in series [23], 3.2e-05 µmol/min/mg; in [24] it was 0.00025 µmol/min/mg; in “not read [14]”, 0.0028 µmol/min/mg; in “not read [25]” it was 3e-06 µmol/min/mg.

A word on the Ki: it is the dissociation constant of the complex between target and ligand, obtained from inhibition or displacement. The Km is the substrate concentration at which the rate is half of its maximum. In general, Vmax refers to the top rate of the reaction or transport when substrate is in excess.
